From paper PMC6717526 (Cellular signalling, 2019)

Molecular target: bovine arrestin-3^1−393 (truncated arrestin-3, residues 1–393), purified (bovine, UniProt P32120 1-393)
Test: MST

bovine arrestin-3^1−393 (truncated arrestin-3, residues 1–393), purified, sequence (P32120 1-393): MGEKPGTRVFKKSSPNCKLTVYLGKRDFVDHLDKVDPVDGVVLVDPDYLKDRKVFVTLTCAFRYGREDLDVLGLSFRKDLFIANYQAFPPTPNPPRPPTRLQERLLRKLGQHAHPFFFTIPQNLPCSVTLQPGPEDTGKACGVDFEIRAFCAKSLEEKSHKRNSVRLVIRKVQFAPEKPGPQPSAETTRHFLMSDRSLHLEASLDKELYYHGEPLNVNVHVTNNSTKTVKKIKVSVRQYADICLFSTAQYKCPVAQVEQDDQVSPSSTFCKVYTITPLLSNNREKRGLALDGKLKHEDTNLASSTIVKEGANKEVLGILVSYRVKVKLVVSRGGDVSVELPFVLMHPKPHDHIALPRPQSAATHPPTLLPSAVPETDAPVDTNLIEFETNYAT

Kd: 130 ± 35 nM
B1: human His-MELK^1−326,T167E (maternal embryonic leucine-zipper kinase, kinase domain and flanking ubiquitin-associated domain, residues 1–326, T167E) (domain or fragment, UniProt Q14680 1-326, looked up)
chain: MKDYDELLKYYELHETIGTGGFAKVKLACHILTGEMVAIKIMDKNTLGSDLPRIKTEIEALKNLRHQHICQLYHVLETANKIFMVLEYCPGGELFDYIISQDRLSEEETRVVFRQIVSAVAYVHSQGYAHRDLKPENLLFDEYHKLKLIDFGLCAKPKGNKDYHLQECCGSLAYAAPELIQGKSYLGSEADVWSMGILLYVLMCGFLPFDDDNVMALYKKIMRGKYDVPKWLSPSSILLLQQMLQVDPKKRISMKNLLNHPWIMQDYNYPVEWQSKNPFIHLDDDCVTELSVHHRNNRQTMEDLISLWQYDHLTATYLLLLAKKAR
modifications: RED-tris-NTA dye on the His tag (in the MST experiment only)
